These results are taken from patent US20220153839A1 (NBE THERAPEUTICS, published 2022).

Substitutions are numbered along the chain they refer to.

Assay [1] deals with T1, StrepII-tagged human ROR1 extracellular domain (human, UniProt Q01973 30-406).
T1 construct: extracellular domain; also called ROR1-strep; strep-tagged human ROR1
Nature of the assay: SPR (Biacore T200); mAb captured by goat anti-human Fcγ IgG on CM5; ROR1-strep as analyte (Example 8). How it is done:
Affinity screening was then performed to select the best binders. Affinities were determined using a Biacore T200 instrument (GE Healthcare, Buckinghamshire, UK) and data was evaluated using Biacore Evaluation T200 V2.0 software. To capture mAbs, goat α-human Fc-gamma-specific IgG (Jackson ImmunoResearch, #109-005-098) was covalently immobilized on a CM5 chip (GE Healthcare, #BR-1005-30).

The target of assay [2] is T1, StrepII-tagged human ROR1 extracellular …. In words: SPR (Biacore T200), mAb captured by anti-human Fc-gamma IgG on CM5, ROR1-strep as analyte. For orientation: SPR reads the build-up and loss of mass on a sensor chip optically.
The target in assay [3] is T2, human ROR1, full length, on cells (human, UniProt Q01973 30-937). Nature of the assay: cell-based or functional assay.
Assay [4] addresses T3, hROR2 (human, UniProt Q01974).
T3 construct: full length, on the cell surface; also called 63-12 / hROR2; ROR2 on T47D cells
In words: flow cytometry on T47D cells (ROR2 positive, ROR1 negative); APC goat anti-human Fcγ. Here is the method:
Flow cytometry: Cells were stained using standard flow cytometry methodology. Briefly, for purified anti-ROR1 Fab (FIG. 3), 0.1-1×10⁶ cells were stained with 1000 ng/100 μL of Fab on ice for 1 h. After washing twice with ice-cold flow cytometry buffer (PBS containing 1% (v/v) BSA, 0.1% sodium azide and 1 mM EDTA), the cells were incubated with a 1:1000 dilution of a mouse anti-His tag mAb conjugated to Alexa Fluor 488 (Qiagen) in 100 μL flow cytometry buffer on ice for 30 min. For purified anti-ROR1 IgG1 (FIG. 8), 0.1-1×10⁶ cells were blocked by 4% goat serum for 15 min at room temperature and then incubated with 100 ng/100 μL of IgG on ice for 1 h. After washing twice with ice-cold flow cytometry buffer, cells were stained with a 1:500 dilution of goat anti-human IgG, Fcγ pAbs conjugated to APC (Jackson ImmunoResearch) in 100 μL flow cytometry buffer on ice for 30 min. For commercial goat anti human ROR1 polyclonal antibody (FIG. 8), 0.1-1×10⁶ cells were stained with 200 ng/100 μL of Ab on ice for 1 h. […] Finally, 4′,6-diamidino-2-phenylindole (DAPI) was added to a final concentration of 100 ng/mL to exclude dead cells from the analysis. Cells were analyzed using a FACSCalibur instrument (BD Biosciences) and FlowJo analytical software (Tree Star, Ashland, Oreg.).

The target in assay [5] is T2, human ROR1, full length, on cells. In words: flow cytometry on human cancer cell lines; 2A2 2 µg/mL; anti-human IgG (Fcγ) PE. Here is the method: 5×10⁵ of each cell type were added per well to 96-well plates. Plates were centrifuged (3 min, 1300 rpm) with re-suspension in buffer (PBS supplemented with 2% (v/v) of FCS). […] Plates were then incubated on ice for 30 min and washed with 200 μL of buffer prior to resuspension in 200 μL of buffer supplemented with anti-human IgG antibody (Fc gamma-specific) PE (eBioscience 12-4998-82) at a 1:250 dilution. Following 30 min incubation on ice and one washing, cells were analyzed using a FACSCalibur instrument (BD Biosciences) and data was analyzed using FlowJo analytical software (Tree Star, Ashland, Oreg.).

For assay [6] the target is unchanged. In words: cell-based or functional assay. The source holds these as a separate data set.
The target is the same in assay [7]. Nature of the assay: cell-based or functional assay. The source holds these as a separate data set.
For assay [8] the target is unchanged. Nature of the assay: cell-based or functional assay. The source holds these as a separate data set.
Assay [9] shares this target. Nature of the assay: cell-based or functional assay. This is another data set of the same source.
Assay [10] shares this target. In words: cell-based or functional assay. The source holds these as a separate data set.
Assay [11] shares this target. Nature of the assay: cell-based or functional assay. This is another data set of the same source.

T1 sequence (Q01973 other isoform, or with tags, fused parts or gaps): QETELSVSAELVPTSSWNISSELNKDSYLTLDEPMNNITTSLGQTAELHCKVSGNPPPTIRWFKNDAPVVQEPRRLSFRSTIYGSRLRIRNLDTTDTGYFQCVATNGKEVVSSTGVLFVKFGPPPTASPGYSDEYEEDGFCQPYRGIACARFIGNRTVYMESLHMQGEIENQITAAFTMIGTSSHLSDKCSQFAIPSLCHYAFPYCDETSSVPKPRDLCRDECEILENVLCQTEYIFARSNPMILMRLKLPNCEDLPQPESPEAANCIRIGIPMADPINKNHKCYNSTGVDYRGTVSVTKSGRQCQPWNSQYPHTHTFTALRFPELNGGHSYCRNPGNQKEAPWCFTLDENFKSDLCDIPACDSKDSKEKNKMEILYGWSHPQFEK
T2 sequence (Q01973 30-937): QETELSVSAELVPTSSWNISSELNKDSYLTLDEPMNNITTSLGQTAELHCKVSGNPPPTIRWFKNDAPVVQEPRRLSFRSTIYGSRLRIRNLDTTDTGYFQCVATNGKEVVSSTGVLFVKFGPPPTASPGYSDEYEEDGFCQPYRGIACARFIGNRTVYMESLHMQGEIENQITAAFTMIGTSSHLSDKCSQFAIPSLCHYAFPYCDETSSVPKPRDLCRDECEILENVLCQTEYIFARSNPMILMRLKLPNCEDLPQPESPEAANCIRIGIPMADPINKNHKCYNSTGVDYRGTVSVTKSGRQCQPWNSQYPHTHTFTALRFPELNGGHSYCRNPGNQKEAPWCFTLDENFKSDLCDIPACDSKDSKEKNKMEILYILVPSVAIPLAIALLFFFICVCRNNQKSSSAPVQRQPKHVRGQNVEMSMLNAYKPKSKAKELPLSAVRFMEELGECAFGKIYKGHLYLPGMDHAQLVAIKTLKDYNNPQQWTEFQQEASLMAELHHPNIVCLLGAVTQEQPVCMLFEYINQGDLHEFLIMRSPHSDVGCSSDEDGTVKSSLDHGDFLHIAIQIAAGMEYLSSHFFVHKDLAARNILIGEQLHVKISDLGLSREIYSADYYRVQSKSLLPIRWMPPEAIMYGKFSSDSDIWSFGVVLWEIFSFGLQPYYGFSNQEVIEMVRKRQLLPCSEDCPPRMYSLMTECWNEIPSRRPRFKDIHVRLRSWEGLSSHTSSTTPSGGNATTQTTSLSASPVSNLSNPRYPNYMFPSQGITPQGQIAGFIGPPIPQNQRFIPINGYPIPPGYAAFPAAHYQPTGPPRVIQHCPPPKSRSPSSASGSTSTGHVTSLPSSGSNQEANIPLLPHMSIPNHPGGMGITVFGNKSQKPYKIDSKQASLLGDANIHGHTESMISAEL
T3 sequence (Q01974 34-943 limits assumed): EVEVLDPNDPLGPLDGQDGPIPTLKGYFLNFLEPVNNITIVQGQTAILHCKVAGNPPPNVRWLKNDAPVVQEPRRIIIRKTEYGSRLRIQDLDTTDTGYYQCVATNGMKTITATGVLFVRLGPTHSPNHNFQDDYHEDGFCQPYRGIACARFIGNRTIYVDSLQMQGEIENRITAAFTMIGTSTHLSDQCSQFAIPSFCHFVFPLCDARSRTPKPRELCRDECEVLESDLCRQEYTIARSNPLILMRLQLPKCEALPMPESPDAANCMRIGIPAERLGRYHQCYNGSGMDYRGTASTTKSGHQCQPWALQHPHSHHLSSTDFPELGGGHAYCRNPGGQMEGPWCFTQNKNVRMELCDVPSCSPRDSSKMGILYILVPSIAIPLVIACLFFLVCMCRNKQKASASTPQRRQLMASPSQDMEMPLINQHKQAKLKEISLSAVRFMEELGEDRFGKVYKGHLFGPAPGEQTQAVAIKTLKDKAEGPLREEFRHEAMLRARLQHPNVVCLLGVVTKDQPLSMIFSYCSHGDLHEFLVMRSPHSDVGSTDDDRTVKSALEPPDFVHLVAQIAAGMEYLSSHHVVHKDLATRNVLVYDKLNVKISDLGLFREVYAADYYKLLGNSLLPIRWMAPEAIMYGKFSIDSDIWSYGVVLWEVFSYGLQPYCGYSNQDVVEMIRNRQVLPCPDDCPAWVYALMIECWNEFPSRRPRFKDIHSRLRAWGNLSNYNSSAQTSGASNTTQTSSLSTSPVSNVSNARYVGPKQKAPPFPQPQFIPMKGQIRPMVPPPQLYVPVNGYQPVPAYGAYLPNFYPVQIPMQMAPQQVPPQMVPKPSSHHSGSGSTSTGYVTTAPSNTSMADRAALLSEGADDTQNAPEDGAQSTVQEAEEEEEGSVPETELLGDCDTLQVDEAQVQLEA

B1: HuXBR1-402(17) (mAb291) (antibody, human IgG1, V domains shown)
VH: QVQLRESGPGLVKPSETLSLTCTVSGFDISSYYMSWVRQPPGKGLEWIGAIGISGNAYYASWAKSRVTISRDTSKNQFSLKLSSVTAADTAVYYCARDHPTYGMDLWGPGTLVTVSS
VL: SYELTQPPSVSVAPGKTARITCEGNNIGSKAVHWYQQKPGQAPVLVIYDDDERPSGIPERFSGSNSGNTATLTISRVEAGDEADYYCQVWDSSAYVFGGGTKLTVLG
notes: Humanized IgG (human IgG1 constant regions, lambda)
Consider B1, for which, in assay [1], the affinity, expressed as Kd, was 3.4 nM; the koff (as a rule, the first-order rate constant of dissociation) was 0.00322 s⁻¹; the kon – broadly, the second-order rate constant of association – is 960000 M⁻¹ s⁻¹. Besides, in [2], binding was put at a Kd of 3.34 nM.

B2: HuXBR1-402(19) (mAb295) (antibody, human IgG1, V domains shown)
VH: B1 VH with R5Q, K43N
VL: B1 VL
notes: as for B1
For the molecule B2, in [1], the Kd (in general, the equilibrium constant for the complex coming apart) came out at 3 nM; the koff amounted to 0.00332 s⁻¹; the kon was determined as 1.11e+06 M⁻¹ s⁻¹. Further, the Kd in assay [2] turned out to be 2.98 nM.

B3: HuXBR1-402(26) (mAb296) (antibody, human IgG1, V domains shown)
VH: B1 VH with R5Q, K43N
VL: B1 VL with P8L, P14L, K16Q, Q41L, V77A, E78Q, K102Q
notes: as for B1
In assay [1], B3 yielded a Kd of 3.1 nM, a koff of 0.00328 s⁻¹ and a kon of 1.05e+06 M⁻¹ s⁻¹. The same molecule displayed a Kd in assay [2] of 3.13 nM.

B4: ERR1-Top43-G5-PNU (adc204) antibody drug conjugate (other)
VH: QSLEESGGRLVTPGTPLTLTCTVSGFSLSSYWMSWVRQAPGKGLEWIGAIYGSGNTYYASWAKGRFTISKTSTTVDLKITSPTTEDTATYFCARDVHSTATDLWGPGTLVTISS
VL: SYELTQLPSVSVSLGQTARITCGGNNIGSKAVNWYQQKPGLAPGLLIYNDDERPSGVPDRFSGSNSGDTATLTISGAQAGDEADYYCQLWDSSAGAYVFGGGTQLTVTG
modifications: Gly5-EDA-PNU joined by sortase to the C-terminal G5SLPETG tag of the full light chain; Gly5-EDA-PNU joined by sortase to the C-terminal LPETG tag of the full heavy chain
For the molecule B4, in assay [3], the “IC50 of in vitro cell killing, HS 578T cells (hROR1 status positive)” value came to 0.707 µg/mL and the “IC50 of in vitro cell killing, MDA-MD-468 cells (hROR1 status positive)” value turned out to be 0.143 µg/mL.

B5: ERR1-TOP43 chimeric rabbit/human IgG1 (antibody, V domains shown)
VH: B4 VH
VL: B4 VL
notes: Rabbit variable domains on human IgG1 constant regions (pCEP4), lambda light chain, from HEK 293F cells
Take B5: the binding result in assay [4] was “no binding (tested: 100 ng/100 µL)”.

B6: ERR1-TOP54 (antibody, IgG1, V domains shown)
VH: QSLEESGGRLVTPGTPLTLTCTASGFSLSDYYMSWVRQAPGEGLEWIGTIYGGSGNTWYATWAKGRFTISKTSTTVDLKITSPTTEDTATYFCARDFGLSTGGLWGPGTLVTISS
VL: B4 VL with N26S, N49D, G95R, Y97F
notes: also called ERR1-TOP54 chimeric rabbit/human IgG1
Consider B6, for which, in [4], the binding result was “no binding (tested: 100 ng/100 µL)”.

B7: 2A2 (mAb066) IgG (antibody)
heavy: not shown
light: DIVMTQSQKIMSTTVGDRVSITCKASQNVDAAVAWYQQKPGQSPKLLIYSASNRYTGVPDRFTGSGSGTDFTLTISNMQSEDLADYFCQQYDIYPYTFGGGTKLEIKRTVAAPSVFIFPPSDEQLKSGTASVVCLLNNFYPREAKVQWKVDNALQSGNSQESVTEQDSKDSTYSLSSTLTLSKADYEKHKVYACEVTHQGLSSPVTKSFNRGECGGGGSLPETGGWSHPQFEK
notes: Known anti-ROR1 antibody (WO 2010/124188), murine-human chimeric IgG1; tags HC: LPETG-Strep, LC: G5SLPETG-Strep; they may be variable domains only
B7: the binding result in assay [5] is “binds”.

B8: XBR1-402-G5-PNU antibody drug conjugate (other)
VH: QEQQKESGGGLFKPTDTLTLTCTASGFDISSYYMSWVRQAPGNGLEWIGAIGISGNAYYASWAKSRSTITRNTNLNTVTLKMTSLTAADTATYFCARDHPTYGMDLWGPGTLVTVSS
VL: SYELTQLPSVSVSLGQTARITCEGNNIGSKAVHWYQQKPGLAPGLLIYDDDERPSGVPDRFSGSNSGDTATLTISGAQAGDEADYYCQVWDSSAYVFGGGTQLTVTG
modifications: Gly5-EDA-PNU joined by sortase to the LPET of the C-terminal G5SLPETG tag of the full light chain; Gly5-EDA-PNU (PNU-159682 derivative) joined by sortase to the LPET of the C-terminal LPETG tag of the full heavy chain
Consider B8, for which, in assay [6], the “IC50 (cell killing of 697 cells, luminescence)” value was 0.0757 µg/mL. The “IC50 of in vitro cell killing, HS 578T cells (hROR1 status positive)” value in assay [3] stood at 1.4 µg/mL. Moreover, the “IC50 of in vitro cell killing, hROR1-overexpressing EMT-6 (clone 14)” value in assay [7] was found to be 0.015 µg/mL. Also, the “IC50 of in vitro cell killing, 697 cells” value in assay [8] was 0.0176 µg/mL. The “IC50 values on 697 cells (in vitro cell killing)” value in [9] was found to be 0.212 µg/mL. For the same molecule, the “IC50 (cell killing of Kasumi-2 cells, luminescence)” value in [10] came to 0.0012 µg/mL. The “IC50 of in vitro cell killing, hROR1-overexpressing EMT-6” value in assay [11] was determined as 0.0011 µg/mL.
